Measured values reported in US20190092852A1.

Key:
[1] = target: T1, human IL-33 (R&D Systems, #3625-IL-010/CF) (human) (UniProt O95760)
T1 sequence (looked up): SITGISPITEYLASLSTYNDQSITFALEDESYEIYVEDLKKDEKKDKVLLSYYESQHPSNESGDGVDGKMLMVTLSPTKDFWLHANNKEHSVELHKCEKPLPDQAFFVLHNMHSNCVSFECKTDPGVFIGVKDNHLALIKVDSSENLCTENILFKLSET

[2] = target: T1, human IL-33 (R&D Systems, #3625-IL-010/CF) (human); remark: listed apart in the source
[3] = target: human IL-33 N-His (human)
[4] = target: human ST2L on HEK-BLUE IL-33/IL-1beta cells (human) (UniProt Q01638)
[5] = target: T1, human IL-33 (R&D Systems, #3625-IL-010/CF) (human); remark: listed apart in the source
[6] = target: human IL-33 (cell-based blocking assay of Example 2) (human) (UniProt O95760)
[7] = target: cyno IL-33 (cell-based blocking assay of Example 2) (cynomolgus monkey)
[8] = target: T1, human IL-33 (R&D Systems, #3625-IL-010/CF) (human); remark: listed apart in the source
[9] = target: cynomolgus monkey N-terminal 6-His-tagged and C-terminal Avi-tagged IL-33 (S112-T270) (cynomolgus monkey); assay: cell-based or functional assay
[10] = target: T1, human IL-33 (R&D Systems, #3625-IL-010/CF) (human); assay: cell-based or functional assay

cyno IL-33 (cell-based blocking assay of Example 2) (cynomolgus monkey), sequence (chain, as listed by the source): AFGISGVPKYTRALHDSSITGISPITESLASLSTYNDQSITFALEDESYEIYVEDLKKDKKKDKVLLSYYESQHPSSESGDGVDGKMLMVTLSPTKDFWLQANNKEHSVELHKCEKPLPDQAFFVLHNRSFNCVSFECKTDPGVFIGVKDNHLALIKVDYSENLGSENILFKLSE
human ST2L on HEK-BLUE IL-33/IL-1beta cells (human), sequence (Q01638 19-556 limits assumed): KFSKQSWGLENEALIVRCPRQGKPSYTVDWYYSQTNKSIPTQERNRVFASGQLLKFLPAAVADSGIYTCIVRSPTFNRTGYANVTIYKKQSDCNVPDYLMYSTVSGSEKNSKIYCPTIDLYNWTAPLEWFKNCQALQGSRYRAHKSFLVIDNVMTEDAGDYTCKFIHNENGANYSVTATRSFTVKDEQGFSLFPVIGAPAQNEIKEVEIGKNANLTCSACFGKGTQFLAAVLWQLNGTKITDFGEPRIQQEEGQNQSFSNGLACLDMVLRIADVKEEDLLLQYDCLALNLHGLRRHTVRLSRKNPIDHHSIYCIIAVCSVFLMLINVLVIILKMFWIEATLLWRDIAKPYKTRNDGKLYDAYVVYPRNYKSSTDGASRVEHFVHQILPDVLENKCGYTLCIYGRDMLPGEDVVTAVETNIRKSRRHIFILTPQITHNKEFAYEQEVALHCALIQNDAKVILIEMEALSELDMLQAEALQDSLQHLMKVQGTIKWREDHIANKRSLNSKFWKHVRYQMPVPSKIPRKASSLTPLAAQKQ
cynomolgus monkey N-terminal 6-His-tagged and C-terminal Avi-tagged IL-33 (S112-T270) (cynomolgus monkey), sequence (chain, as listed by the source limits assumed): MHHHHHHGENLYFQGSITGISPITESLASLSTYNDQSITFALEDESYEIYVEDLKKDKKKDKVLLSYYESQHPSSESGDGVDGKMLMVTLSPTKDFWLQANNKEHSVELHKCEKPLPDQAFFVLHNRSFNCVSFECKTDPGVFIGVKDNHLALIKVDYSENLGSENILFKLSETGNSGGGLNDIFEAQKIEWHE

Substance: control IgG4 antibody
- Ph-p38 MFI at 0.4 nM Ab (500 pM human IL-33, primary basophils) [1]: 152 MFI
- Ph-p38 MFI at 2 nM Ab (500 pM human IL-33, primary basophils) [2]: 110 MFI
- IC50 as printed in the table (fit value of a flat curve: Control IgG4 stays at about 115-125 % IL-33 activity up to 1e4 pM, no inhibition); SEAP reporter, HEK-BLUE IL-33 cells, 15 pM human IL-33 N-His [3]: 7.63e-06 pM
- IC90 as printed in the table (fit value of a flat curve: Control IgG4 stays at about 115-125 % IL-33 activity up to 1e4 pM, no inhibition); SEAP reporter, HEK-BLUE IL-33 cells, 15 pM human IL-33 N-His [3]: 1.08e-06 pM

Substance: human IL-33 N-His (ligand)
- EC50 (SEAP reporter OD 620, HEK-BLUE IL-33/IL-1beta cells) [4]: 0.006 nM

Substance: sST2-LZ (sST2 (M1-F328) C-terminal leucine zipper (LZ)-Flag-His) (receptor)
- Ph-p38 MFI at 0.4 nM sST2 (500 pM human IL-33, primary basophils) [1]: 113 MFI
- Ph-p38 MFI at 2 nM sST2 (500 pM human IL-33, primary basophils) [2]: 40 MFI
- IC50, IL-33-induced phospho-p38 in primary human basophils, 500 pM hIL-33 [5]: 7.9e-13 M
- IC50 (HEK-BLUE SEAP reporter, IL-33 blocking) [6]: 0.0122 nM
- IC90 (HEK-BLUE SEAP reporter, IL-33 blocking) [6]: 0.0467 nM
- IC50 (HEK-BLUE SEAP reporter, IL-33 blocking) [7]: 0.0018 nM
- IC90 (HEK-BLUE SEAP reporter, IL-33 blocking) [7]: 0.0036 nM
- IC50; SEAP reporter, HEK-BLUE IL-33 cells, 15 pM human IL-33 N-His, 20 h [3]: 62.1 pM
- IC90; SEAP reporter, HEK-BLUE IL-33 cells, 15 pM human IL-33 N-His, 20 h [3]: 257 pM
- IC50 (read off the curve) [8]: 0.0008 nM
- HEK-BLUE SEAP reporter IC50 [9]: 0.03 nM
- HEK-BLUE SEAP reporter IC50 [10]: 0.027 nM
- IFN-γ secretion from primary NK cells, IC50 [10]: 0.15 nM
